Assay results taken from patent publication US20210371539A1 (Genmab, published 2021).
One block for each binder: values may come before it.

B3: IgG1-CD37-37.3-E430G (antibody, V domains shown)
VH: QVQVKESGPGLVAPSQSLSITCTVSGFSLTTSGVSWVRQPPGKGLEWLGVIWGDGSTNYHSALKSRLSIKKDHSKSQVFLKLNSLQTDDTATYYCAKGGYSLAHWGQGTLVTVSA
VL: DIQMTQSPASLSVSVGETVTITCRASENIRSNLAWYQQKQGKSPQLLVNVATNLADGVPSRFSGSGSGTQYSLKINSLQSEDFGTYYCQHYWGTTWTFGGGTKLEIKR
modifications: Conjugated to Alexa Fluor 555 or 647 in the FRET assays only (about 3 dyes per antibody, sites not stated).
notes: IgG1 kappa with E430G (EU numbering) in the Fc; also called hexamerization-enhanced CD37 antibody

What was measured:
[1] = biological target: T1, Human CD20 (human, UniProt P11836 1-297); test: flow cytometry FRET with fluorophore-conjugated antibodies on Daudi cells
T1 construct: Endogenous CD20 on the human lymphoma cell line Daudi
T1 sequence: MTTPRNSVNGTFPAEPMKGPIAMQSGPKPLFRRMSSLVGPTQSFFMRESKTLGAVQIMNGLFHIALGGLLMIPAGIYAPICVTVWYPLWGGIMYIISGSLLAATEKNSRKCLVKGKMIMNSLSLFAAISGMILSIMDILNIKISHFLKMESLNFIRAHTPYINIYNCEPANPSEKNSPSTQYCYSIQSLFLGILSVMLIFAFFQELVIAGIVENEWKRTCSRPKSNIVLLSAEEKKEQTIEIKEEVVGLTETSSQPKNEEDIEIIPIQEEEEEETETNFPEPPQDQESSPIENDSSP
Procedure: (§1) 0.5×10⁶ Daudi cells/well were incubated with 10 μg/mL A555-conjugated donor antibodies and/or 10 μg/mL A647-conjugated acceptor antibodies in a total volume of 100 μL RPMI/0.2% BSA in 96-well round-bottom plates (Greiner Bio-One, Cat No 650101) for 15 minutes at 37° C. in a water bath. Cells were washed twice with FACS buffer, pelleted by centrifugation (3 min at 300×g) and resuspended in 200 μL PBST. Mean fluorescence intensities (MFI) were determined by flow cytometry on a FACS Canto II (BD Biosciences) by recording 10,000 events at 585/42 nm (FL2, donor A555) and […] (FL3), both excited at 488 nm, and at 660/20 nm (FL4, acceptor A647), excited at 635 nm. Unquenched donor fluorescence intensity was determined from cells incubated with only A555-conjugated donor antibodies, and non-enhanced acceptor intensity was determined from cells incubated with only A647-conjugated acceptor antibodies. Proximity-induced FRET was determined by measuring the energy transfer between cells incubated with both A555-conjugated donor and A647-conjugated acceptor antibodies. MFI values were used to calculate FRET according to the following equation: energy transfer (ET)=FL3(D,A)−FL2(D,A)/a−FL4(D,A)/b, wherein a=FL2(D)/FL3(D), b=FL4(A)/FL3(A), D is donor, A is acceptor and FLn (D,A)=donor+acceptor. ET values obtained were normalized according to the following equation: normalized energy transfer (%)=100*ET/FL3(D, A).

[2] = biological target: B3; test: FRET by flow cytometry, A555/A647-conjugated antibodies on Daudi cells; Fc-Fc interaction between cell-bound antibodies
Procedure: as §1, with “ET values obtained were normalized according to the following equation: normalized energy transfer (%)=100*ET/FL3(D, A).” left out

[3] = biological target: T2, Human CD37 (human, UniProt P11049 1-281); test: conclusion from CDC assays on Daudi and WIL2-S cells
T2 construct: Endogenous CD37 on the human lymphoma cell line Daudi; also called Leukocyte Antigen CD37; GP52-40
T2 sequence: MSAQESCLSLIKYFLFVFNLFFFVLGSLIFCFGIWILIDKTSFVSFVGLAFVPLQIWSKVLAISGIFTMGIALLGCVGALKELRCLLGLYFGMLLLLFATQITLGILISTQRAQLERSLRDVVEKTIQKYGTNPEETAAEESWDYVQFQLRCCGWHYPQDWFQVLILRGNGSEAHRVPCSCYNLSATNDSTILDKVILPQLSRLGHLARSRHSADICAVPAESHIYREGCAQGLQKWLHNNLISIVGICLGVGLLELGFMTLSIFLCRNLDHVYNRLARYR

[4] = biological target: T2, Human CD37; test: flow cytometry FRET with fluorophore-conjugated antibodies on Daudi cells
Procedure: as §1

B1: IgG1-CD20-11B8-E430G (antibody, V domains shown)
VH: EVQLVQSGGGLVHPGGSLRLSCTGSGFTFSYHAMHWVRQAPGKGLEWVSIIGTGGVTYYADSVKGRFTISRDNVKNSLYLQMNSLRAEDMAVYYCARDYYGAGSFYDGLYGMDVWGQGTTVTVSS
VL: EIVLTQSPATLSLSPGERATLSCRASQSVSSYLAWYQQKPGQAPRLLIYDASNRATGIPARFSGSGSGTDFTLTISSLEPEDFAVYYCQQRSDWPLTFGGGTKVEIKR
modifications: Conjugated to Alexa Fluor 555 or 647 in the FRET assays only (about 3 dyes per antibody, sites not stated).
notes: IgG1 kappa with E430G (EU numbering) in the Fc; also called Hx-CD20-11B8; Hx-CD20-11B
binding result [1]: binds | binding result [2]: binds

Binder: B3
binding result [3]: binds

Other lines, results leading:

binding result [1]: binds
B2: IgG1-CD20-11B8 (antibody, V domains shown)
VH: EVQLVQSGGGLVHPGGSLRLSCTGSGFTFSYHAMHWVRQAPGKGLEWVSIIGTGGVTYYADSVKGRFTISRDNVKNSLYLQMNSLRAEDMAVYYCARDYYGAGSFYDGLYGMDVWGQGTTVTVSS
VL: EIVLTQSPATLSLSPGERATLSCRASQSVSSYLAWYQQKPGQAPRLLIYDASNRATGIPARFSGSGSGTDFTLTISSLEPEDFAVYYCQQRSDWPLTFGGGTKVEIK
notes: Expressed as IgG1 kappa with wild type Fc; In the FRET assays it was conjugated to Alexa Fluor 555 or 647; also called WT type II CD20 antibody IgG1-CD20-11B8

binding result [4]: binds
B4: IgG1-CD37-37.3 (antibody, V domains shown)
VH: QVQVKESGPGLVAPSQSLSITCTVSGFSLTTSGVSWVRQPPGKGLEWLGVIWGDGSTNYHSALKSRLSIKKDHSKSQVFLKLNSLQTDDTATYYCAKGGYSLAHWGQGTLVTVSA
VL: DIQMTQSPASLSVSVGETVTITCRASENIRSNLAWYQQKQGKSPQLLVNVATNLADGVPSRFSGSGSGTQYSLKINSLQSEDFGTYYCQHYWGTTWTFGGGTKLEIK
notes: Expressed as IgG1 kappa with wild type Fc; In the FRET assays it was conjugated to Alexa Fluor 555 or 647 (about 3 dye molecules per antibody)
